Measurements from patent US20250043302A1, “MUTATED HYDROXYPHENYLPYRUVATE DIOXYGENASE POLYPEPTIDE, AND CODING GENE AND USE THEREOF” (BEIJING DABEINONG BIOTECHNOLOGY CO., LTD., priority 2021, published 2025).
Residue numbers refer to the chain shown, from its start. Numbers in names are those of the source.

Columns and labels:
Format in all cases: in vivo
[1] = test system: Arabidopsis thaliana T1 plants; assay: Topramezone tolerance of transgenic Arabidopsis thaliana T1 plants (spray, bleached leaf area grade, damage score); settings: 7 DAT, Table 4; for Classification and statistics of the grade of pesticide damage: Grade 0 / Classification and statistics of the grade of pesticide damage: Grade 1 / Classification and statistics of the grade of pesticide damage: Grade 2 / Classification and statistics of the grade of pesticide damage: Grade 3: number of plants; for Scores: pesticide damage score 0-100
Outline: (§1)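 T1 transformants selected by glufosinate; 18-day-old plants, with empty-vector and wild-type controls, sprayed with topramezone (25–200 g ai/ha), isoxaflutole (35–280 g ai/ha) or mesotrione (52.5–420 g ai/ha), water as 0×. Bleached leaf area fraction scored at 7 DAT as grades 0–3.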

[2] = test system: Arabidopsis thaliana T1 plants; assay: Isoxaflutole tolerance of transgenic Arabidopsis thaliana T1 plants (spray, bleached leaf area grade, damage score); design: Scores (pesticide damage): scale not given here; settings: spray, Arabidopsis thaliana T1 plants; for Classification and statistics of the grade of pesticide damage: Grade 0 (number of plants) / Classification and statistics of the grade of pesticide damage: Grade 1 (number of plants) / Classification and statistics of the grade of pesticide damage: Grade 2 (number of plants) / Classification and statistics of the grade of pesticide damage: Grade 3 (number of plants): 16 plants
Outline: as §1

[3] = test system: Arabidopsis thaliana T1 plants; assay: Mesotrione tolerance of transgenic Arabidopsis thaliana T1 plants (spray, bleached leaf area grade, damage score); design: Scores: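 damage score 0-100 computed as Σ(N×S)/(T×M)×100 over grades 0-3 with higher meaning more damage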; settings: Arabidopsis thaliana T1 plants; for Grade 0 (classification and statistics of the grade of pesticide damage; number of plants) / Grade 1 (classification and statistics of the grade of pesticide damage; number of plants) / Grade 2 (classification and statistics of the grade of pesticide damage; number of plants) / Grade 3 (classification and statistics of the grade of pesticide damage; number of plants): 16 plants
Outline: as §1

[4] = isoxaflutole 35 g ai/ha (0.5x field concentration)
[5] = isoxaflutole 70 g ai/ha (1x field concentration)

B1: HvHPPD-02: nucleotide sequence encoding wild-type Hordeum vulgare HPPD; vector DBN11762 (nucleic acid)
DNA: ATGCCGCCGACGCCCACCACCCCAGCAGCTACCGGAGCTGCGGCTGCAGTAACCCCTGAGCATGCTCGGCCCCACAGGATGGTGAGGTTTAATCCAAGATCAGATCGTTTTCATACACTCTCGTTCCACCATGTTGAGTTCTGGTGCGCCGACGCGGCTTCAGCGGCCGGGAGGTTCGCCTTCGCGCTGGGGGCCCCTCTTGCCGCGCGTAGTGATTTGTCTACTGGGAATTCAGCGCACGCGTCCCAGCTTCTCCGAAGCGGCAGTCTCGCCTTTCTCTTCACTGCACCATATGCAAATGGATGTGATGCAGCAACTGCTTCCCTGCCGAGCTTTTCTGCGGATGCCGCGAGGCGATTCAGTGCTGACCATGGGATCGCCGTCCGGTCAGTTGCTCTTAGAGTGGCTGATGCTGCTGAGGCATTCAGGGCTTCAAGGCGTCGTGGTGCACGCCCGGCGTTTGCCCCGGTTGATCTTGGGCGGGGGTTTGCTTTTGCAGAGGTGGAGCTGTACGGCGACGTGGTGCTCCGATTTGTTTCTCACCCGGACGGCACTGATGTGCCCTTCTTGCCAGGATTTGAAGGTGTGACCAACCCTGATGCCGTGGATTATGGACTCACAAGATTTGATCATGTGGTTGGCAATGTTCCTGAATTGGCACCTGCTGCCGCTTACATCGCAGGTTTTACTGGCTTCCATGAATTTGCTGAATTCACGGCGGAGGATGTTGGTACAACTGAGTCAGGGCTGAACAGTGTTGTTTTAGCCAACAACTCAGAAGGAGTTCTCCTTCCCTTGAATGAACCTGTTCATGGAACCAAGCGCCGCTCCCAAATTCAAACATTTCTTGAGCACCACGGCGGCCCTGGTGTTCAACATATTGCTGTCGCCTCTAGCGACGTCCTGCGTACATTACGCAAGATGAGGGCTCGGTCCGCAATGGGTGGTTTCGACTTCCTCCCTCCACCATTGCCAAAATATTATGAAGGCGTCAGAAGACTTGCAGGAGATGTCCTCTCTGAAGCTCAGATCAAGGAGTGCCAAGAACTTGGCGTCTTGGTTGATAGAGATGACCAAGGAGTACTTCTGCAGATATTTACAAAACCCGTTGGTGACAGGCCAACTCTTTTCCTGGAGATGATTCAGAGAATTGGCTGCATGGAGAAAGATGAAAGAGGCGAGGAGTACCAGAAGGGTGGTTGTGGAGGCTTTGGAAAAGGAAACTTCTCAGAGCTGTTCAAGTCCATAGAAGATTACGAGAAAAGTCTAGAAGCCAAGCAGTCTGCTGCAGTGCAAGGTTCCTGA
modifications: HvHPPD-02 Nucleotide Sequence
notes: vector DBN11762
In the case of B1, the “Classification and statistics of the grade of pesticide damage: Grade 0” value ([1]; topramezone 25 g ai/ha (1×)) is reported as 0, the “Classification and statistics of the grade of pesticide damage: Grade 1” value ([1]; topramezone 25 g ai/ha (1×)) is reported as 0 and the “Classification and statistics of the grade of pesticide damage: Grade 2” value ([1]; topramezone 25 g ai/ha (1×)) is reported as 0. For the same molecule, the “Classification and statistics of the grade of pesticide damage: Grade 3” value ([1]; topramezone 25 g ai/ha (1×)) was 16, the “Classification and statistics of the grade of pesticide damage: Grade 0” value ([1]; topramezone 100 g ai/ha (4×)) was 0 and the “Classification and statistics of the grade of pesticide damage: Grade 1” value ([1]; topramezone 100 g ai/ha (4×)) was 0. The “Classification and statistics of the grade of pesticide damage: Grade 2” value ([1]; topramezone 100 g ai/ha (4×)) was 0, the “Classification and statistics of the grade of pesticide damage: Grade 3” value ([1]; topramezone 100 g ai/ha (4×)) was 16 and the Scores ([1]; topramezone 25 g ai/ha (1×)) was 100. For the same molecule, the Scores ([1]; topramezone 100 g ai/ha (4×)) was 100, the Resistance evaluation ([1]; topramezone 25 g ai/ha (1×)) was “non-resistant (non-resistant plants (scores 68-100))” and the Resistance evaluation ([1]; topramezone 100 g ai/ha (4×)) was “non-resistant (non-resistant plants (scores 68-100))”. For the same molecule, the Resistance evaluation [2, 4] was “Non-resistant”, the “Scores (pesticide damage)” value [2, 4] was 100 and the “Classification and statistics of the grade of pesticide damage: Grade 0 (number of plants)” value [2, 4] was 0. For the same molecule, the “Classification and statistics of the grade of pesticide damage: Grade 1 (number of plants)” value [2, 4] was 0, the “Classification and statistics of the grade of pesticide damage: Grade 2 (number of plants)” value [2, 4] was 0 and the “Classification and statistics of the grade of pesticide damage: Grade 3 (number of plants)” value [2, 4] was 16. For the same molecule, the Resistance evaluation [2, 5] was “Non-resistant”, the “Scores (pesticide damage)” value [2, 5] was 100 and the “Classification and statistics of the grade of pesticide damage: Grade 0 (number of plants)” value [2, 5] was 0. The “Classification and statistics of the grade of pesticide damage: Grade 1 (number of plants)” value [2, 5] was 0, the “Classification and statistics of the grade of pesticide damage: Grade 2 (number of plants)” value [2, 5] was 0 and the “Classification and statistics of the grade of pesticide damage: Grade 3 (number of plants)” value [2, 5] was 16. The Resistance evaluation ([3]; mesotrione 52.5 g ai/ha) was “Non-resistant”, the Scores ([3]; mesotrione 52.5 g ai/ha) was 100 and the “Grade 0 (classification and statistics of the grade of pesticide damage; number of plants)” value ([3]; mesotrione 52.5 g ai/ha) was 0. For the same molecule, the “Grade 1 (classification and statistics of the grade of pesticide damage; number of plants)” value ([3]; mesotrione 52.5 g ai/ha) was 0, the “Grade 2 (classification and statistics of the grade of pesticide damage; number of plants)” value ([3]; mesotrione 52.5 g ai/ha) was 0 and the “Grade 3 (classification and statistics of the grade of pesticide damage; number of plants)” value ([3]; mesotrione 52.5 g ai/ha) was 16. For the same molecule, the Resistance evaluation ([3]; mesotrione 105 g ai/ha) was “Non-resistant”, the Scores ([3]; mesotrione 105 g ai/ha) was 100 and the “Grade 0 (classification and statistics of the grade of pesticide damage; number of plants)” value ([3]; mesotrione 105 g ai/ha) was 0. For the same molecule, the “Grade 1 (classification and statistics of the grade of pesticide damage; number of plants)” value ([3]; mesotrione 105 g ai/ha) was 0, the “Grade 2 (classification and statistics of the grade of pesticide damage; number of plants)” value ([3]; mesotrione 105 g ai/ha) was 0 and the “Grade 3 (classification and statistics of the grade of pesticide damage; number of plants)” value ([3]; mesotrione 105 g ai/ha) was 16.

B2: HvHPPDm-F372A-F383W-02: nucleotide sequence encoding Hordeum vulgare HPPD with F372A+F383W; vector DBN11765 (nucleic acid)
DNA: B1 DNA with T1096G, T1097C, T1098C, T1130G, C1131G
modifications: HvHPPDm-F372A-F383W-02 Nucleotide Sequence
notes: vector DBN11765
In the case of B2, the “Classification and statistics of the grade of pesticide damage: Grade 0” value ([1]; topramezone 25 g ai/ha (1×)) is reported as 16, the “Classification and statistics of the grade of pesticide damage: Grade 1” value ([1]; topramezone 25 g ai/ha (1×)) is reported as 0 and the “Classification and statistics of the grade of pesticide damage: Grade 2” value ([1]; topramezone 25 g ai/ha (1×)) is reported as 0. The “Classification and statistics of the grade of pesticide damage: Grade 3” value ([1]; topramezone 25 g ai/ha (1×)) was 0, the “Classification and statistics of the grade of pesticide damage: Grade 0” value ([1]; topramezone 100 g ai/ha (4×)) was 10 and the “Classification and statistics of the grade of pesticide damage: Grade 1” value ([1]; topramezone 100 g ai/ha (4×)) was 6. The “Classification and statistics of the grade of pesticide damage: Grade 2” value ([1]; topramezone 100 g ai/ha (4×)) was 0, the “Classification and statistics of the grade of pesticide damage: Grade 3” value ([1]; topramezone 100 g ai/ha (4×)) was 0 and the Scores ([1]; topramezone 25 g ai/ha (1×)) was 0. For the same molecule, the Scores ([1]; topramezone 100 g ai/ha (4×)) was 13, the Resistance evaluation ([1]; topramezone 25 g ai/ha (1×)) was “highly” and the Resistance evaluation ([1]; topramezone 100 g ai/ha (4×)) was “highly”. The Resistance evaluation [2, 4] was “Moderately”, the “Scores (pesticide damage)” value [2, 4] was 25 and the “Classification and statistics of the grade of pesticide damage: Grade 0 (number of plants)” value [2, 4] was 4. For the same molecule, the “Classification and statistics of the grade of pesticide damage: Grade 1 (number of plants)” value [2, 4] was 12, the “Classification and statistics of the grade of pesticide damage: Grade 2 (number of plants)” value [2, 4] was 0 and the “Classification and statistics of the grade of pesticide damage: Grade 3 (number of plants)” value [2, 4] was 0. For the same molecule, the Resistance evaluation [2, 5] was “Moderately”, the “Scores (pesticide damage)” value [2, 5] was 33 and the “Classification and statistics of the grade of pesticide damage: Grade 0 (number of plants)” value [2, 5] was 1. For the same molecule, the “Classification and statistics of the grade of pesticide damage: Grade 1 (number of plants)” value [2, 5] was 14, the “Classification and statistics of the grade of pesticide damage: Grade 2 (number of plants)” value [2, 5] was 1 and the “Classification and statistics of the grade of pesticide damage: Grade 3 (number of plants)” value [2, 5] was 0. The Resistance evaluation ([3]; mesotrione 52.5 g ai/ha) was “Highly resistant”, the Scores ([3]; mesotrione 52.5 g ai/ha) was 8 and the “Grade 0 (classification and statistics of the grade of pesticide damage; number of plants)” value ([3]; mesotrione 52.5 g ai/ha) was 12. For the same molecule, the “Grade 1 (classification and statistics of the grade of pesticide damage; number of plants)” value ([3]; mesotrione 52.5 g ai/ha) was 4, the “Grade 2 (classification and statistics of the grade of pesticide damage; number of plants)” value ([3]; mesotrione 52.5 g ai/ha) was 0 and the “Grade 3 (classification and statistics of the grade of pesticide damage; number of plants)” value ([3]; mesotrione 52.5 g ai/ha) was 0. For the same molecule, the Resistance evaluation ([3]; mesotrione 105 g ai/ha) was “Moderately”, the Scores ([3]; mesotrione 105 g ai/ha) was 29 and the “Grade 0 (classification and statistics of the grade of pesticide damage; number of plants)” value ([3]; mesotrione 105 g ai/ha) was 2. The “Grade 1 (classification and statistics of the grade of pesticide damage; number of plants)” value ([3]; mesotrione 105 g ai/ha) was 14, the “Grade 2 (classification and statistics of the grade of pesticide damage; number of plants)” value ([3]; mesotrione 105 g ai/ha) was 0 and the “Grade 3 (classification and statistics of the grade of pesticide damage; number of plants)” value ([3]; mesotrione 105 g ai/ha) was 0.
